Source: the supplement of paper PMC10724198
± gives the standard deviation of the averaged measurements.

Test system: Saccharomyces cerevisiae
Assay: protein stability index of tFT-peptide fusion (C-terminal peptide) (PSI (0-1 scale)); higher = more stable (slower turnover)
Details: genetic background: wild type; temperature: 30 C
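Note: PSI is a weighted mean of sequencing reads over stability bins, variants kept only with over 10 reads, mCherry proximal and sfGFP distal, peptide attached via GGGS linker.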

Sequence	protein stability index
SPPRPPVLSPGH	0.68 ± 0.085
SPPSATTLRAPS	0.641 ± 0.037
SPPSFFRATRSN	0.644 ± 0.096
SPPSFLSFFCAP	0.755 ± 0.14
SPPSLPPLPPRF	0.702 ± 0.016
SPPSPLRPPPPS	0.7 ± 0.01
SPPSPRLPPPLL	0.77 ± 0.046
SPPTPPLAPLSP	0.656 ± 0.042
SPPTPPPSPPFL	0.523 ± 0.012
SPPTPPTSICPS	0.705 ± 0.03
SPRHAGSSAWRP	0.674 ± 0.064
SPRPDSVLLRSP	0.723 ± 0.025
SPRPLPLPLPTS	0.682 ± 0.1
SPRSLLTPHPHM	0.686 ± 0.041
SPRSSPLPSPPP	0.766 ± 0.026
SPSFDLLFSPFD	0.778 ± 0.01
SPSPAPPTRSPS	0.696 ± 0.023
SPSPRLSFFLPS	0.727 ± 0.026
SPSRVSYFFFFS	0.641 ± 0.059
SPSSTSPAPFPL	0.672 ± 0.14
SPTLNRSLPVPS	0.654 ± 0.045
SPTPINALRPPT	0.695 ± 0.032
SPTPLLPLASSP	0.695 ± 0.052
SPTPPPPAPPPP	0.645 ± 0.044
SPTPPPPSPLAP	0.726 ± 0.059
SPTRSPPRPLPP	0.649 ± 0.031

Sequence	protein stability index
SPTSLPLSMPTR	0.724 ± 0.1
SPVGRRTLPSGF	0.692 ± 0.023
SPWFPLPSFPLA	0.73 ± 0.029
SQGDVLLFMFLW	0.548 ± 0.033
SQGSCCTALDVA	0.675 ± 0.046
SQLEPNNVQVTT	0.68 ± 0.0069
SQLRSSTSARYV	0.692 ± 0.14
SQPLPNRLKTRG	0.695 ± 0.032
SQPNRESQNTFN	0.711 ± 0.052
SQTEAGSICTLP	0.676 ± 0.05
SRDMGYFFPKLK	0.655 ± 0.073
SRFDAGYRGTIT	0.68 ± 0.034
SRGMERIWEFGR	0.612 ± 0.036
SRGNYKLIWSDT	0.731 ± 0.093
SRHWCHDTGTLT	0.7 ± 0.012
SRIGNADAAQGM	0.732 ± 0.042
SRKSDTMPSYPL	0.791 ± 0.26
SRLQIRIRINEV	0.572 ± 0.032
SRLVCSTLHWRD	0.699 ± 0.021
SRNRYSSPPVFI	0.644 ± 0.039
SRPISCSLPCCV	0.646 ± 0.054
SRPLVPSPPSPV	0.663 ± 0.02
SRPPPYAPPSPP	0.716 ± 0.01
SRPRLPPSPCLF	0.631 ± 0.032
SRPRPPVTPPSE	0.648 ± 0.054
SRPSPPPRRPLG	0.759 ± 0.067

Sequence	protein stability index
SRRAPPPLYLPL	0.699 ± 0.067
SRSAQAGFKVFN	0.712 ± 0.2
SRSFVPRNSPRI	0.6609 ± 0.0051
SRSRPSRTLPLD	0.695 ± 0.022
SRSSASTKRNRW	0.701 ± 0.096
SRSSRINLMRRW	0.674 ± 0.021
SRVLLPPQTLLL	0.573 ± 0.035
SRVVSPLFNLCL	0.692 ± 0.018
SRVWACCGVIGV	0.667 ± 0.067
SRWHVCGWYKRR	0.682 ± 0.016
SRWWSRPRYRDG	0.752 ± 0.017
SRYGKVIRKKHE	0.756 ± 0.021
SSDLTKKCNRLR	0.673 ± 0.023
SSFCWAGWGGVC	0.778 ± 0.059
SSGRWLFLPPCP	0.899 ± 0.13
SSLGLFISTASV	0.664 ± 0.042
SSLIGHTLRPLV	0.686 ± 0.022
SSLLSLPLRCSF	0.717 ± 0.039
SSLPSFPTKCPF	0.71 ± 0.051
SSLPSTGPRPLH	0.582 ± 0.038
SSNVVLYHSCSQ	0.65 ± 0.018
SSPARPTRTSPA	0.652 ± 0.061
SSPDLGPVCVPC	0.647 ± 0.016
SSPFCPLFQNPL	0.757 ± 0.056
SSPLPHPSFSPS	0.689 ± 0.017
SSPLRLAPTEPS	0.6927 ± 0.0039

Sequence	protein stability index
SSPLRVLGPESG	0.689 ± 0.062
SSPPPPPPPPSP	0.746 ± 0.053
SSPPTHAPPLPP	0.688 ± 0.017
SSPSPAPPPPRP	0.738 ± 0.069
SSQLKMESLFII	0.624 ± 0.064
SSQRPRCTFVLL	0.684 ± 0.031
SSRPPPVLTPAR	0.745 ± 0.044
SSRSQTVRTFAL	0.689 ± 0.068
SSSFLVLSSHFI	0.701 ± 0.028
SSSPLPPPRLPP	0.7039 ± 0.0016
SSSPPPPSLAPP	0.693 ± 0.0025
SSTLPVYLSTTL	0.662 ± 0.023
SSTSPPPVTPPD	0.625 ± 0.0096
SSVCPWACPPPP	0.666 ± 0.1
SSVVCGPGVLGV	0.729 ± 0.077
STAEFLDFKMTT	0.691 ± 0.05
STAPRYNGRKYS	0.702 ± 0.069
STFASLRPLFFS	0.6128 ± 0.0012
STGACCGTVRLL	0.642 ± 0.0085
STGDWKLKFSKF	0.765 ± 0.066
STGLITYNYSVC	0.648 ± 0.024
STGVGGPCGRTS	0.617 ± 0.055
STKVEIKKRDSR	0.715 ± 0.18
